Assay results: article PMC7788595

Molecular target: sfGFP^204SCO (Aequorea victoria) [GFP: P42212]
Assay: FRET or BRET; steady state emission of the covalently SPAAC-linked GFVen^204 dimer, excitation at 450 nm; relative efficiency from donor and acceptor intensities (Equation 3) after deconvolution

FRET efficiency allowing for variation in quantum yield: 85 to 91%
relative FRET efficiency: 87%
Substance: Venus^204azF (from UniProt P42212 2-238) (natural protein)
